Positions count from the first letter of the chain named. Numbers in names are those of the source. Where “and” joins values, the source holds several entries; their conditions need not be identical. Equal entries are not always repeated.
B1: A02_Rd4_6nM_C01 N297Q/K222R Aclys vc0101 (antibody, V domains shown)
VH: EVQLLESGGGLVQPGGSLRLSCAASGFTFSSYAMNWVRQAPGKGLEWVSAITASGGSTYYADSVKGRFTISRDNSKNTLYLQMNSLRAEDTAVYYCARYWPMSLWGQGTLVTVSS
VL: EIVLTQSPGTLSLSPGERATLSCRASQSVSAYYLAWYQQKPGQAPRLLMYDASIRATGIPDRFSGSGSGTDFTLTISRLEPEDFAVYYCQQYERWPLTFGQGTKVEIK
modifications: N297Q and K222R (EU) in the human IgG1 constant region; AcLys-Val-Cit-PABC-Aur0101 joined by transglutaminase to the glutamine at 297
B2: Combo_Rd4_0.6nM_C29 N297Q/K222R Aclys vc0101 (antibody, V domains shown)
VH: B1 VH with A33P, N35S, T52G, A53G, T58L, Y59P, S103D, L104I
VL: B1 VL with A31S, Y32S, E93Q, R94S
modifications: N297Q and K222R (EU) in the human IgG1 constant region; AcLys-Val-Cit-PABC-Aur0101 joined by transglutaminase to the glutamine at 297
B3: Combo_Rd4_0.6nM_C29 H7c/N297A/K222R AmPEG6 Aur0131 (antibody, V domains shown)
VH: B1 VH with A33P, N35S, T52G, A53G, T58L, Y59P, S103D, L104I
VL: B1 VL with A31S, Y32S, E93Q, R94S
modifications: H7c tag LLQG (SEQ ID NO: 454), N297A and K222R (EU) in the human IgG1 heavy chain constant region; amino-PEG6-C2-Aur0131 joined by transglutaminase
B4: Combo_Rd4_0.6nM_C29 LCQ05/N297Q/K222R Aclys vc0101 (antibody, human IgG1, part only)
heavy: B1 VH with A33P, N35S, T52G, A53G, T58L, Y59P, S103D, L104I
light: B1 VL with A31S, Y32S, E93Q, R94S
chain: GGLLQGPP
modifications: LCQ05 tag; Aclys vc0101 drug conjugate
B5: Combo_Rd4_0.6nM_C29 H7c/N297A/K222R AmPEG6 Aur3377 (antibody, V domains shown)
VH: B1 VH with A33P, N35S, T52G, A53G, T58L, Y59P, S103D, L104I
VL: B1 VL with A31S, Y32S, E93Q, R94S
modifications: H7c tag LLQG (SEQ ID NO: 454), N297A and K222R (EU) in the human IgG1 heavy chain constant region; amino-PEG6-C2-Aur3377 joined by transglutaminase
B6: A02_Rd4_6nM_C16 N297Q/K222R Aclys vc0101 (antibody, V domains shown)
VH: B1 VH with T52S, A53D, S54F, S103D, L104I
VL: B1 VL with A31D, Y32L, E93Q, R94T
modifications: N297Q and K222R (EU) in the human IgG1 constant region; AcLys-Val-Cit-PABC-Aur0101 joined by transglutaminase to the glutamine at 297
B7: Combo_Rd4_0.6nM_C29 LCQ05/K222R Aclys vc0101 (antibody, human IgG1, part only)
heavy: B1 VH with A33P, N35S, T52G, A53G, T58L, Y59P, S103D, L104I
light: B1 VL with A31S, Y32S, E93Q, R94S
chain: GGLLQGPP
modifications: LCQ05 tag; Aclys vc0101 drug conjugate
B8: A02_Rd4_6nM_C01/h2B4 anti-BCMA/CD3 bispecific (bispecific antibody, V domains shown)
VH 1: B1 VH
VL 1: B1 VL
VH 2: EVQLVESGGGLVQPGGSLRLSCAASGFTFSDYYMTWVRQAPGKGLEWVAFIRNRARGYTSDHNASVKGRFTISRDNAKNSLYLQMNSLRAEDTAVYYCARDRPSYYVLDYWGQGTTVTVSS
VL 2: DIVMTQSPDSLAVSLGERATINCTSSQSLFNVRSRKNYLAWYQQKPGQPPKLLISWASTRESGVPDRFSGSGSGTDFTLTISSLQAEDVAVYYCKQSYDLFTFGSGTKLEIK
B9: Combo_Rd4_0.6nM_C29/h2B4 anti-BCMA/CD3 bispecific (bispecific antibody, V domains shown)
VH 1: B1 VH with A33P, N35S, T52G, A53G, T58L, Y59P, S103D, L104I
VL 1: B1 VL with A31S, Y32S, E93Q, R94S
VH 2: B8 VH 2
VL 2: B8 VL 2
B10: P5C1/h2B4 anti-BCMA/CD3 bispecific (bispecific antibody, V domains shown)
VH 1: B1 VH with A33P, N35S, T52G, A53G, S103D, L104S
VL 1: B1 VL with A31S, Y32T, M49I, I54S, T57P, E93S, R94T, W95S
VH 2: B8 VH 2
VL 2: B8 VL 2
B11: C01_Rd4_6nM_C12/h2B4 anti-BCMA/CD3 bispecific (bispecific antibody, V domains shown)
VH 1: B1 VH with A33P, N35S, T52G, A53G, S57W, T58S, S103D, L104S
VL 1: B1 VL with R24W, A25L, A31S, Y32T, M49I, I54S, T57P, E93S, R94E
VH 2: B8 VH 2
VL 2: B8 VL 2
B12: A02_Rd4_6nM_C16/h2B4 anti-BCMA/CD3 bispecific (bispecific antibody, V domains shown)
VH 1: B1 VH with T52S, A53D, S54F, S103D, L104I
VL 1: B1 VL with A31D, Y32L, E93Q, R94T
VH 2: B8 VH 2
VL 2: B8 VL 2
B13: A02_Rd4_0.6nM_C01/h2B4 anti-BCMA/CD3 bispecific (bispecific antibody, V domains shown)
VH 1: B1 VH with T52L, A53S, S103D, L104I
VL 1: B1 VL with A25G, S26G, A31S, Y32S, E93Q, R94S
VH 2: B8 VH 2
VL 2: B8 VL 2
B14: COMBO_Rd4_0.6nM_C22/h2B4 anti-BCMA/CD3 bispecific (bispecific antibody, V domains shown)
VH 1: B1 VH with T52S, A53D, T58R, Y59W, A97T, S103D, L104I
VL 1: B1 VL with Q27V, S28R, A31S, Y32T, E93M, R94K
VH 2: B8 VH 2
VL 2: B8 VL 2
B15: A02_Rd4_0.6nM_C06 (antibody, V domains shown)
VH: B1 VH with T52S, A53D, T58A, Y59W
VL: B1 VL with A31V, Y32L, E93Q
B16: A02_Rd4_0.6nM_C18 (antibody, V domains shown)
VH: B1 VH with I51V, T52L, A53D
VL: B1 VL with A31E, Y32L, E93F, R94G
B17: A02_Rd4_6nM_C04 (antibody, V domains shown)
VH: B1 VH with T52M, A53S, S57P, T58L, S103A
VL: B1 VL with Y32L, E93Q, R94V
B18: A02_Rd4_6nM_C19 (antibody, V domains shown)
VH: B1 VH with T52S, A53D, T58R, Y59W, L104D
VL: B1 VL with A31V, Y32L, E93L, R94A
B19: A02_Rd4_6nM_C08 (antibody, V domains shown)
VH: B1 VH with T52L, A53D, L104P
VL: B1 VL with A31F, Y32L, E93G, R94S

The binders below were run against human BCMA on BCMA-expressing tumor cells (human) (UniProt Q02223) (assay: cell-based or functional assay).
human BCMA on BCMA-expressing tumor cells (human), sequence (Q02223 whole entry): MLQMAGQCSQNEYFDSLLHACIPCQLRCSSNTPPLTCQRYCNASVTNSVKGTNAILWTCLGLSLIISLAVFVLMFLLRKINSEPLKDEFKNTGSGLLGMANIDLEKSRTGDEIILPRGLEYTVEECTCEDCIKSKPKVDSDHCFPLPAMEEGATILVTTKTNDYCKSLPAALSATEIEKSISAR

Binder | EC50, cell viability (CellTiter-Glo, 96 h), KMS12BM LUCGFP (+) | EC50, cell viability (CellTiter-Glo, 96 h), L363 LUCGFP (+) | EC50, cell viability (CellTiter-Glo, 96 h), MM1.S LUCGFP (BCMA++)
B1 | 18.7 nM and 2.8 µg/mL | 2.53 nM and 0.38 µg/mL | 0.26 nM and 0.04 µg/mL
B2 | 0.99 nM and 0.15 µg/mL | 0.66 nM and 0.1 µg/mL | 0.11 nM and 0.02 µg/mL
B3 | 0.85 nM and 0.13 µg/mL | 0.81 nM and 0.12 µg/mL | 0.23 nM and 0.03 µg/mL
B4 | 1.19 nM and 0.18 µg/mL | 1.05 nM and 0.16 µg/mL | 0.34 nM and 0.05 µg/mL
B5 | 5.01 nM and 0.75 µg/mL | 1.36 nM and 0.2 µg/mL | 0.3 nM and 0.05 µg/mL
B6 | 38.7 nM and 5.81 µg/mL | 9.68 nM and 1.45 µg/mL | 0.8 nM and 0.12 µg/mL
B7 | 10.9 nM and 1.64 µg/mL | 1.67 nM and 0.25 µg/mL | 0.13 nM and 0.02 µg/mL

Each binder was assayed against human BCMA (B-Cell Maturation Antigen) on myeloma cells (human) (UniProt Q02223) (assay: cell-based or functional assay).
human BCMA (B-Cell Maturation Antigen) on myeloma cells (human), sequence (Q02223 whole entry): as above

Binder | EC50, T-cell mediated cytotoxicity (LDH release, 20 h) on KMS12BM (BCMA+) cells [nM] | EC50, T-cell mediated cytotoxicity (LDH release, 20 h) on MOLP8 (MOLP8+) cells [nM] | EC50 (nM), killing of primary myeloma cells, patient MM00146, E:T 1:1 [nM] | EC50 (nM), killing of primary myeloma cells, patient MM00147, E:T 2:1 [nM] | EC50 (nM), killing of primary myeloma cells, patient MM00151, E:T 3:1 [nM] | EC50 (nM), killing of primary myeloma cells, patient MM00152, E:T 1:2 [nM] | EC50, T-cell mediated cytotoxicity (LDH release, 20 h) on KMS12PE (BCMA+++) cells [nM] | EC50 (nM), killing of primary myeloma cells in bone marrow mononuclear cells of patient MM00146 (flow cytometry, day 5) [nM]
B8 | 0.057 | 0.06 |  |  |  |  |  | 
B9 | 0.049 | 0.201 | 0.035 | 0.031 | 0.02 | 0.289 | 0.175 | 
B10 | 4.12 |  |  |  |  |  | 0.581 | 
B11 | 0.415 | 0.85 |  |  |  |  | 0.189 | 
B12 | 0.052 | 0.315 |  |  |  |  | 0.186 | 0.029
B13 | 0.078 | 0.55 |  |  |  |  | 0.073 | 0.064
B14 | 0.049 | 0.065 |  |  |  |  | 0.115 | 

What follows are binders tested against cynomolgus BCMA (cynomolgus (given as cyBCMA, Cyno)) (assay: SPR, IgG immobilized, cyno BCMA analyte, 37 C).
cynomolgus BCMA (cynomolgus (given as cyBCMA, Cyno)), sequence (chain, as listed by the source): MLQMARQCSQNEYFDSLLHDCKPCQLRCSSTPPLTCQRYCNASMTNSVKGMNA

Binder | Kd [nM] | koff [s⁻¹] | kon [M⁻¹ s⁻¹]
B15 | 0.058 | 0.000105 | 1.81e+06
B16 | 0.197 | 0.000639 | 3.24e+06
B17 | 0.381 | 0.000831 | 2.18e+06
B18 | 0.26 | 0.000661 | 2.54e+06
B19 | 5.07 | 0.0113 | 2.23e+06

From patent US20240018252A1
